Positions count from the first letter of the chain named. Numbers in names are those of the source. One block for each molecule: values may come before it.
Assays:
[1] = target: GBP1 Δ207-223, non-farnesylated (human) (UniProt P32455); assay: cross-linking; BS3 at 20-times molar excess, 20 µM protein, with 200 µM GDP, 300 µM AlCl3, 10 mM NaF (GDP•AlFx); 50 mM HEPES, 150 mM NaCl, 5 mM MgCl2; SDS-PAGE
[2] = target: GBP1 M139E, non-farnesylated (human) (UniProt P32455); assay: SEC; analytical SEC (Superdex 200 5/150), 20 µM protein with 200 µM GDP, 300 µM AlCl3, 10 mM NaF (GDP•AlFx); 50 mM Tris-HCl pH 7.9, 150 mM NaCl, 5 mM MgCl2
[3] = target: GBP1 M139R, non-farnesylated (human) (UniProt P32455); assay: as above
[4] = target: the molecule itself; assay: as above
[5] = target: the molecule itself; assay: specific GDPase activity against protein concentration (HPLC), quadratic fit; apparent Kd of dimer formation; isolated LG domains, 1 mM GDP, 37 °C, 50 mM Tris-HCl pH 7.9, 150 mM NaCl, 5 mM MgCl2; dimer to monomers
[6] = target: T1, human guanylate-binding protein 1 (GBP1), wild-type, non-farnesylated (human), P32455; assay: specific GTPase activity against protein concentration (HPLC), quadratic fit; apparent Kd of dimer formation; non-farnesylated GBP1, 1 mM GTP, 37 °C, 50 mM Tris-HCl pH 7.9, 150 mM NaCl, 5 mM MgCl2; dimer to monomers; conditions: remark: other sources report otherwise
T1 chain: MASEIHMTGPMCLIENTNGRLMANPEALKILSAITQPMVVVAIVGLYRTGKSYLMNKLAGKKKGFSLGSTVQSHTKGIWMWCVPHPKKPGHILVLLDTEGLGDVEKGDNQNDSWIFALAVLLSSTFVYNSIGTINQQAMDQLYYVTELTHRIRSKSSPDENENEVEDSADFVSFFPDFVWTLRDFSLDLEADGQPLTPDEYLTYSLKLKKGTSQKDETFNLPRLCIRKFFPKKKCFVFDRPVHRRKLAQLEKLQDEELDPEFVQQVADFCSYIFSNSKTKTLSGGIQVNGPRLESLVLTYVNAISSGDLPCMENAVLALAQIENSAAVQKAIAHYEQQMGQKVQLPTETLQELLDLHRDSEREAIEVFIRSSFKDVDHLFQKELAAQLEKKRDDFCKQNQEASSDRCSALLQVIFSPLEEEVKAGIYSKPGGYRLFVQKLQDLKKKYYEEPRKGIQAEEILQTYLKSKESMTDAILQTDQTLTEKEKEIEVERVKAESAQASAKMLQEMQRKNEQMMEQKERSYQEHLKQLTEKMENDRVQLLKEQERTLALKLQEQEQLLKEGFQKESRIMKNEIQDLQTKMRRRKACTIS

[7] = target: T1, human guanylate-binding protein 1 …; assay: cross-linking; BS3 at 20-times molar excess, 20 µM protein, with 200 µM GDP, 300 µM AlCl3, 10 mM NaF (GDP•AlFx); 50 mM HEPES, 150 mM NaCl, 5 mM MgCl2; SDS-PAGE; conditions: remark: other sources report otherwise
[8] = target: the molecule itself; assay: light scattering-based polymerization assay; 10 µM farnesylated GBP1, polymerization started with 1 mM GTP (for the pivot point mutants also with LPS added); 50 mM Tris-HCl pH 7.9, 150 mM NaCl, 5 mM MgCl2; absorbance at 350 nm over 40 min; dimers to polymers
[9] = target: T2, human guanylate-binding protein 1 (GBP1), wild-type, farnesylated (human), P32455; assay: cryo-EM structure; single particle analysis of polymeric disks; 5 µM farnesylated GBP1 with GDP•AlFx for 20-30 min, no membranes; ~37 Å; conditions: remark: other sources report otherwise
T2 chain: T1 chain

[10] = target: the molecule itself; assay: cross-linking; BS3 at 20-times molar excess, 20 µM protein, with 200 µM GDP, 300 µM AlCl3, 10 mM NaF (GDP•AlFx); 50 mM HEPES, 150 mM NaCl, 5 mM MgCl2; SDS-PAGE
[11] = target: the molecule itself; assay: specific GTPase activity against protein concentration (HPLC), quadratic fit; apparent Kd of dimer formation; non-farnesylated GBP1, 1 mM GTP, 37 °C, 50 mM Tris-HCl pH 7.9, 150 mM NaCl, 5 mM MgCl2; dimer to monomers

Molecule: GBP1 M139E, non-farnesylated (from UniProt P32455 1-592) (natural protein)
stoichiometry N [2]: 2

B1: isolated LG domain of GBP1, wild-type (domain or fragment, human, UniProt P32455 1-317, looked up)
chain: MASEIHMTGPMCLIENTNGRLMANPEALKILSAITQPMVVVAIVGLYRTGKSYLMNKLAGKKKGFSLGSTVQSHTKGIWMWCVPHPKKPGHILVLLDTEGLGDVEKGDNQNDSWIFALAVLLSSTFVYNSIGTINQQAMDQLYYVTELTHRIRSKSSPDENENEVEDSADFVSFFPDFVWTLRDFSLDLEADGQPLTPDEYLTYSLKLKKGTSQKDETFNLPRLCIRKFFPKKKCFVFDRPVHRRKLAQLEKLQDEELDPEFVQQVADFCSYIFSNSKTKTLSGGIQVNGPRLESLVLTYVNAISSGDLPCMENAVL
notes: large GTPase (LG) domain of GBP1, human; stop codon in place of A318 (primer A318*); also called wild-type LG domain; WT; source: E. coli, pQE-80L, purified (Ni Sepharose HP, Superdex 200)
stoichiometry N [4]: 2 | Kd [5]: 110 µM

B3: GBP1 D199K, farnesylated (natural protein, human, UniProt P32455 1-592, looked up)
chain: T1 chain with D199K
modifications: farnesyl moiety at the C-terminal CaaX box motif
notes: GBP1, human, full-length construct with D199K in helix α4; also called pivot point mutant
binding result [8]: binds

B4: GBP1 D199A, farnesylated (natural protein, human, UniProt P32455 1-592, looked up)
chain: T1 chain with D199A
modifications: farnesyl moiety at the C-terminal CaaX box motif
notes: GBP1, human, full-length construct with D199A in helix α4; also called pivot point mutant
binding result [8]: binds

B6: GBP1 Δ207-213, non-farnesylated (natural protein, human, UniProt P32455 1-592, looked up)
chain: MASEIHMTGPMCLIENTNGRLMANPEALKILSAITQPMVVVAIVGLYRTGKSYLMNKLAGKKKGFSLGSTVQSHTKGIWMWCVPHPKKPGHILVLLDTEGLGDVEKGDNQNDSWIFALAVLLSSTFVYNSIGTINQQAMDQLYYVTELTHRIRSKSSPDENENEVEDSADFVSFFPDFVWTLRDFSLDLEADGQPLTPDEYLTYSLGGGSGGGSQKDETFNLPRLCIRKFFPKKKCFVFDRPVHRRKLAQLEKLQDEELDPEFVQQVADFCSYIFSNSKTKTLSGGIQVNGPRLESLVLTYVNAISSGDLPCMENAVLALAQIENSAAVQKAIAHYEQQMGQKVQLPTETLQELLDLHRDSEREAIEVFIRSSFKDVDHLFQKELAAQLEKKRDDFCKQNQEASSDRCSALLQVIFSPLEEEVKAGIYSKPGGYRLFVQKLQDLKKKYYEEPRKGIQAEEILQTYLKSKESMTDAILQTDQTLTEKEKEIEVERVKAESAQASAKMLQEMQRKNEQMMEQKERSYQEHLKQLTEKMENDRVQLLKEQERTLALKLQEQEQLLKEGFQKESRIMKNEIQDLQTKMRRRKACTIS
notes: GBP1, human, full-length construct; also called helix α4’ variant; source: E. coli, pQE-80L, purified (Ni Sepharose HP, Superdex 200)
stoichiometry N [10]: 2 | fold lower dimerization affinity than wild-type GBP1 [11]: 3 fold

Other lines, results leading:

stoichiometry N [1]: 2
Molecule: GBP1 Δ207-223, non-farnesylated (from UniProt P32455 1-592) (natural protein)

stoichiometry N [3]: 2
Molecule: GBP1 M139R, non-farnesylated (from UniProt P32455 1-592) (natural protein)

Kd [6]: 1.9 µM | stoichiometry N [7]: 2
B2: human guanylate-binding protein 1 (GBP1), wild-type, non-farnesylated, P32455 1-592 (natural protein)
chain: T1 chain

subunits (dimeric building blocks) in a planar polymeric disk [9]: 30 subunits
B5: human guanylate-binding protein 1 (GBP1), wild-type, farnesylated, P32455 1-592 (natural protein)
chain: T1 chain
modifications: here or on the partner: farnesyl moiety at the C-terminal CaaX box motif; farnesyl moiety at the C-terminal CaaX box motif
